Data published in paper PMC4125095, “Arabidopsis miR171-Targeted Scarecrow-Like Proteins Bind to GT cis-Elements and Mediate Gibberellin-Regulated Chlorophyll Biosynthesis under Light Conditions”.

Columns and labels:
[1] = molecular target: T1, SCL27 (His-SCL27) (Arabidopsis thaliana) (UniProt Q7XJM8); assay: EMSA; settings: 1 nM Cy5-DNA, 20 uL binding buffer (composition not given, ref 60), 30 C 20 min; 6% native PAGE, 0.5x TBE, 4 C
T1 sequence: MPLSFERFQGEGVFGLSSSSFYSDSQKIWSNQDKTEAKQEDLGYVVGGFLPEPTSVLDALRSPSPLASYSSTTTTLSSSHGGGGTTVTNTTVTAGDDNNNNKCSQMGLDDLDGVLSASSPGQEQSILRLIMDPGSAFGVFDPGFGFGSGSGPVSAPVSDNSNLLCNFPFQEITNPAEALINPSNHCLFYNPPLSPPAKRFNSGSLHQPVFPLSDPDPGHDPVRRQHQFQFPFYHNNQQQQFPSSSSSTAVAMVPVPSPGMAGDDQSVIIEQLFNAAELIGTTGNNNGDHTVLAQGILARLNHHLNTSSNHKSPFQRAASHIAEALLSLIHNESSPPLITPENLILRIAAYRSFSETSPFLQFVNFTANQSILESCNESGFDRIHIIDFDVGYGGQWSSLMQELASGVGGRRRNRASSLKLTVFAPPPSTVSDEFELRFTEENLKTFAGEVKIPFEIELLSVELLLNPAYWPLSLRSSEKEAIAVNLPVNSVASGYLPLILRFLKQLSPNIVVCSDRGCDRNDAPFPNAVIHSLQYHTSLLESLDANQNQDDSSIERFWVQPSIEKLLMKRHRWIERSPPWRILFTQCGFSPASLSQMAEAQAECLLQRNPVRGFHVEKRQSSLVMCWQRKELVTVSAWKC

SCL27 (His-SCL27) = molecular target: T2, SCL27 (His-SCL27) (Arabidopsis thaliana, UniProt Q7XJM8 1-640); assay: EMSA; 1 nM probe; 1 nM Cy5-DNA, 20 uL binding buffer (composition not given, ref 60), 30 C 20 min; 6% native PAGE, 0.5x TBE, 4 C; settings: protein: recombinant, tags: His (pET28b)
T2 sequence: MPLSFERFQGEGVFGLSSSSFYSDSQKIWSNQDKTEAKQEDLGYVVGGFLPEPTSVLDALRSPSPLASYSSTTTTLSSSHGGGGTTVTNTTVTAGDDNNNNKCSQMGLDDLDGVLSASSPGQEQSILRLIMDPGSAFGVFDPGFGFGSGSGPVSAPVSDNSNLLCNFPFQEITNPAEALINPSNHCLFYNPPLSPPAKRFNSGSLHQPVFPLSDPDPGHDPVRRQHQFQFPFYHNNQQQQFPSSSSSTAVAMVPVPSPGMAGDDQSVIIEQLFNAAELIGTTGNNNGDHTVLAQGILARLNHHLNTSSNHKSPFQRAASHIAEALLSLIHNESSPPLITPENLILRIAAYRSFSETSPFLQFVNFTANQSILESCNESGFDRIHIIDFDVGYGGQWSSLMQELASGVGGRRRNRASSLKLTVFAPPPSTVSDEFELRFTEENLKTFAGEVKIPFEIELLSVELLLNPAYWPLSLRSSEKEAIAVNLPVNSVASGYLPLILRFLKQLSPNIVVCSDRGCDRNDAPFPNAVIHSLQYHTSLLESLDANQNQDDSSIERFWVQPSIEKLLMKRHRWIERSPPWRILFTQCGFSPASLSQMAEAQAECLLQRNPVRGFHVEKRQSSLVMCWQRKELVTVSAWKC

Molecule: AGCCAGTGGCGATAAGCCTGTTATAGGCATATGAACAAGACAATGGAGGAGGAGGAGGAGATGGTCTAGAAACCGTGACGACGGAGGAGGAAAAGAAAAGAGATGAAGTAGAAGAAGAAAATAAAATAAAATAGAGGCAAAAATGGAAATTTTCATTGGAATTTTGCAACTTTTAGAAATTGTAGAAGATGAAGAGAGCTGTGTGATCCAAAAGTGCTTATCGCCACTGGCT (double strand) [PORC promoter fragment III]
- binding [1]: binds

Molecule: AGCCAGTGGCGATAAGGATTAAAGAAACGGGTGGAATACACAAGAACAATGTATATGCAAGATTGCAGTGGTGTCGTTGATTACTCTCAATTTGATGATAAGATTCAAATTTGATATGAGTTTGGAGAAGAAGAAGATGACGAAGAGATCATTACTTGGCGATGAGACGAACAAGCAGGAAAGTATTGCCTACGCTTCCTGAACTTCATGAGATGCTTATCGCCACTGGCT (double strand) [PORC promoter fragment I]
- binding [1]: no binding

B1: M (62-bp mutated GT element fragment) (dsDNA)
DNA 1: CCCGGGGAAAAGAGATGAAGTAGAAGAACCCGGGAAAATAAAATAGAGGCAAAAATCCCGGG
DNA 2: CCCGGGATTTTTGCCTCTATTTTATTTTCCCGGGTTCTTCTACTTCATCTCTTTTCCCCGGG
- binding result (SCL27 (His-SCL27)): no binding

B2: W (62-bp GT element fragment) (dsDNA)
DNA 1: GGAAAAGAAAAGAGATGAAGTAGAAGAAGAAAATAAAATAAAATAGAGGCAAAAATGGAAAT
DNA 2: ATTTCCATTTTTGCCTCTATTTTATTTTATTTTCTTCTTCTACTTCATCTCTTTTCTTTTCC
- binding result (SCL27 (His-SCL27); three G(A/G)(A/T)AA(A/T) GT elements, mutant): binds
